Measured values: patent publication US20260139017A1, “COMPOSITIONS AND METHODS USING REELIN IN ALZHEIMER'S DISEASE” (The General Hospital Corporation, priority 2022, published 2026)

System: pDAB1 (Tyr232)
Assay: HRECs treated 5 minutes with recombinant mini-RELN, pDAB1 western blot
Format: cell-based, human
Settings: 5 minutes, 4 ug/mL recombinant protein
Description: For in vitro screening of constructs using recombinant mini-RELN on HRECs, the cells were cultured in EBM-2 media enriched with EGM-2 Single Quots (Lonza) at 37° C. and 5% CO2 and experimentally tested at passage 7. 24 h prior experiment, cells were plated on a 6-well plate at 500,000 cells/mL. Two hours before the experiment, the cells were washed with PBS to remove residual growth media and then incubated with a starving media including EBM-2, 1% GlutaMax+0.2% Normicin. Treatments was conducted using recombinant mini RELN constructs obtained from Innovagen and Recombinant Mouse Reelin Protein from R&D systems (3820-MR-025/CF). Each treatment was incubated for 5 minutes at 4 ug/mL concentration and cells were subsequently harvested in lysis buffer was applied constituted of RIPA (Cell signaling), proteases inhibitors (cOmplete™, Mini, EDTA-free Protease Inhibitor Cocktail, Roche), phosphatases inhibitors (PhosSTOP, Roche), 1 μL of proteasome inhibitor MG-132 10 mM, 1% Triton X 100. The lysates were scraped and centrifugated at 15000 rpm for 10 minutes at 4° C. Total protein levels were quantified via BCA assay. For Western Blotting, 3.5 ug protein homogenates were prepared under reducing and denaturing conditions using Laemmli buffer enriched with 10 mM DTT and 5 min boiling. Samples were electrophoretically separated in a 4-20% Gel at 90V and protein transferred to a PVDF membrane using iBlot™ 2 Dry Blotting System. The membrane was blocked using Intercept® (TBS) Blocking Buffer for 2 hours. We detected pDAB1 (Tyr232; 1:1000, rabbit, #3325 Cell signaling), and total protein staining (Licor). Antibodies were diluted using Intercept® (TBS) Blocking Buffer and incubated overnight at 4C under gentle shaking. Prior secondary antibody incubation, membranes were washed 2 times using TBS-T for 10 minutes. As secondary antibodies we used IR Dye 800n CW Goat-anti-Rabbit (925-32211, Licor) diluted 1:10000 in blocking buffer for 1 h at room temperature under gentle shaking. Membranes were washed three times with TBST-T prior IR detection using Odyssey imager. To quantify the results, each band was quantified using ImageJ and data expressed as pDABL:total protein ratio normalized to the control.

B1: hG2Fc-R5-6-C-termH3447R (protein)
chain: MYRMQLLSCIALSLALVTNSAPLERKSSVECPPCPAPPVAGPSVFLFPPKPKDTLMISRTPEVTCVVVDVSHEDPEVQFNWYVDGVEVHNAKTKPREEQFNSTFRVVSVLTVVHQDWLNGKEYKCKVSNKGLPAPIEKTISKTKGQPREPQVYTLPPSREEMTKNQVSLTCLVKGFYPSDIAVEWESNGQPENNYKTTPPMLDSDGSFFLYSKLTVDKSRWQQGNVFSCSVMHEALHNHYTQKSLSLSPGARTGGGGSGGGGSQTNATRFRLWQPYNNGKKEEIWIVDDFIIDGNNVNNPVMLLDTFDFGPREDNWFFYPGGNIGLYCPYSSKGAPEEDSAMVFVSNEVGEHSITTRDLNVNENTIIQFEINVGCSTDSSSADPVRLEFSRDFGATWHLLLPLCYHSSSHVSSLCSTEHHPSSTYYAGTMQGWRREVVHFGKLHLCGSVRFRWYQGFYPAGSQPVTWAIDNVYIGPQCEEMCNGQGSCINGTKCICDPGYSGPTCKISTKNPDFLKDDFEGQLESDRFLLMSGGKPSRKCGILSSGNNLFFNEDGLRMLMTRDLDLSHARFVQFFMRLGCGKGVPDPRSQPVLLQYSLNGGLSWSLLQEFLFSNSSNVGRYIALEIPLKARSGSTRLRWWQPSENGHFYSPWVIDQILIGGNISGNMVLEDDFTTLDSRKWLLHPGGTKMPVCGSTGDALVFIEKASTRYVVSTDVAVNEDSFLQIDFAVSCSVTDSCYAIELEYSVDLGLSWHPLVRDCLPTNVECSRYHLQRILVSDTFNKWTRITLPLPPYTRSQATRFRWHQPAPFDKQQTWAIDNVYIGDGCIDMCSGHGRCIQGNCVCDEQWGGLYCDDPETSLPTQLKDNFNRAPSSQNWLTVNGGKLSTVCGAVASGMALHFSGGCSRLLVTVDLNLTNAEFIQFYFMYGCLITPNNRNQGVLLEYSVNGGITWNLLMEIFYDQYSKPGFVNILLPPDAKEIATRFRWWQPRHDGLDQNDWAIDNVLISGSASTRKQNYMMNFSRQHGLRRFYNRRRRSLRRYP
With B1 the pDAB1 levels was “increased pDAB1 levels”.
